In US20230151434A1, “REAWAKENING OF DORMANT TUMOR CELLS BY MODIFIED LIPIDS DERIVED FROM STRESS ACTIVATED NEUTROPHILS” (The Wistar Institute of Anatomy and Biology, priority 2020, published 2023):

B1: S100A8/A9: recombinant S100A8/A9, heterocomplex of two S100 calcium binding proteins (calprotectin) (protein, UniProt P27005 2-89; P31725 2-113, looked up)
Protein S100-A8: PSELEKALSNLIDVYHNYSNIQGNHHALYKNDFKKMVTTECPQFVQNINIENLFRELDINSDNAINFEEFLAMVIKVGVASHKDSHKE
Protein S100-A9: ANKAPSQMERSITTIIDTFHQYSRKEGHPDTLSKKEFRQMVEAQLATFMKKEKRNEALINDIMEDLDTNQDNQLSFEECMMLMAKLIFACHEKLHENNPRGHGHSHGKGCGK

Experiments:
KPr^p53A cells = test: In vivo stress induction, NOD/SCID mice injected with KPr^p53A cells and PMN; design: species or system mouse
Excerpt: A total of 2.5×10^4 KPr^p53A cells were intravenously injected to NOD/SCID mice. Beginning 3 weeks after injection, mice were imaged weekly. Luciferin (PerkinElmer) was intraperitoneally injected in mice before imaging according to the manufacturer's instruction. Mice were imaged with IVIS Spectrum In Vivo Imaging System (IVIS, PerkinElmer) to detect luminescent signal coming from growing cancer cells. Mice were put under anesthesia in the induction chamber with isoflurane vaporizer set to 2.5%, at a flow rate of ˜1.5 liters/min. Mice were then transferred in the IVIS imaging stage nose cone inside the IVIS manifold (IVIS manifold nose cones flow set to ˜0.25 LPM). Animals were monitored by video during imaging. Once the images of luciferase/luciferin activity were acquired, the anesthesia was turned off and the animals were returned to their cages. […] Analysis and quantification were performed with IVIS imaging system Living Image Software 4.7.4 (PerkinElmer). […] When signal was detected, mice were sacrificed, and bioluminescent images of the harvested lung were taken. […] If no bioluminescence was detected in lungs after 80 days from last PMN injection, experiments were terminated, and lung tissue were collected. […] Bioluminescence was not detected in any LL2^CisA-injected mice at 3 weeks after injection. Mice were treated with PMN or PMN-MDSC and analyzed as described above. […]

MPO = MPO activity in neutrophils; type: cell-based, mouse; conditions: S100A8/A9 5 μg/ml or LPS 2 μg/ml
Description: Neutrophils were isolated from tumor-free mice as described above, and MPO activity was measured with an MPO Fluorometric Activity Assay Kit (Sigma-Aldrich) using a VICTOR spectrophotometer (PerkinElmer).

PMN [1] = test: LC-ESI-MS analysis of lipids in PMN; type: cell-based, mouse
Description: Lipids were extracted by the Folch procedure with slight modifications, under nitrogen atmosphere, at all steps. Briefly, methanol (1 ml) was added to the cell suspension and mixed. After that, chloroform (2 ml) was added, and the mixture was vortexed every 15 min for 1 hour at 0° C. Next, 0.1 M NaCl (0.5 ml) was added to the samples and vortexed, and the chloroform layer was separated by centrifugation (1500 g, 5 min). The lower (organic) layer was collected. The aqueous layer was re-extracted with 1 ml of chloroform/methanol (2:1, v/v). The chloroform (lower) layers were combined, evaporated under a stream of nitrogen, and used for lipidomics analysis. MS analysis of phospholipids was performed on a Fusion Lumos trihybrid-quadrupoleorbitrap-ion trap mass spectrometer (Thermo Fisher Scientific). Phospholipids were separated on a normal phase column [Luna 3 μm Silica (2) 100 A, 150×1.0 mm (Phenomenex)] at a flow rate of 0.065 ml/min on a Thermo Ultimate 3000 HPLC system. The column was maintained at 35° C. The analysis was performed using gradient solvents (A and B) containing 10 mM ammonium formate. Solvent A contained propanol/hexane/water (285:215:5, v/v/v) and solvent B contained propanol/hexane/water (285:215:40, v/v/v). All solvents were LC/MS grade. The column was eluted for 0 to 3 min with a linear gradient from 10 to 37% B and then held for 3 to 15 min at 37% B. The column was eluted for 15 to 23 min with a linear gradient of 37 to 100% B, and then held for 23 to 75 min at 100% B. The column was eluted again for 75 to 76 min with a linear gradient from 100 to 10% B followed by equilibration from 76 to 90 min at 10% B. Analysis was performed in negative ion mode at a resolution of 120,000 for the full MS scan in a data-dependent mode. The scan range for MS analysis was 400 to 1800 m/z (mass/charge ratio) with a maximum injection time of 100 ms using 1 microscan. An isolation window of 1.2 Da was set for the MS and MS2 scans. Capillary spray voltage was set at 3.5 kV, and capillary temperature was 320° C.

PMN [2] = test: qRT-PCR of Ptges, Ptgs2 and Arg1 in PMN; type: cell-based, mouse
Description: RNA from tumor cells or PMN was extracted from snap-frozen pellets with Quick-RNA Microprep or Quick-RNA Miniprep (Zymo Research) per the manufacturer's instructions. cDNA was prepared with a High-Capacity cDNA Reverse Transcription Kit with RNase Inhibitor (Thermo Fisher Scientific) per the manufacturer's instructions. qRT-PCR was performed in an ABI QuantStudio 5 Rm 422 machine (Applied Biosystems).

PMN [3] = test: ROS production in PMN (DCFDA, flow cytometry); type: cell-based, mouse
Excerpt: FIG. 14A-FIG. 14B show the effect of S100A9 on PMN activity. (FIG. 14A) DCFDA measured by flow cytometry in PMN treated with S100A8/A9 or NE. Each dot represents an individual mouse. Mean±SEM are shown. (FIG. 14B) qRT-PCR of Ptges, Ptgs2, and Arg1 expression in mouse PMN treated with S100A8/A9 or NE. Each dot represents an individual mouse. Mean±SEM are shown.

Molecule | growth of KPr^p53A cells in lung and liver of stressed mice injected with PMN (KPr^p53A cells; 1 mg/kg i.p. daily during stress induction) | survival of stressed tumor-bearing mice (KPr^p53A cells; humane end-points, n=10 per group) | MPO enzymatic activity in PMN (MPO) | content of oxidatively truncated PC species in PMN (PMN [1]; PMN incubation) | accumulation of oxidized, oxidatively truncated, and lyso-PE in PMN (PMN [1]; overnight treatment) | content of LPE containing saturated and monoenic acyl chains in PMN (PMN [1]; overnight treatment) | expression of Arg1, Ptgs2, or Ptges in PMN (PMN [2]) | ROS production in PMN (PMN [3])
Cc1ccc(OCC(O)C(C)NC(C)C)c2c1CCC2 (centres unmarked) [ICI-118,551] | abrogated this effect | markedly improved survival | – | – | – | – | – | –
B1 | – | – | activated MPO in PMN | No significant changes in the content of oxidatively truncated PC species | caused marked accumulation of oxidized, oxidatively truncated, and lyso-PE in PMN | did not change the content of LPE containing saturated and monoenic acyl chains in PMN | little or no effect on expression of Arg1, Ptgs2, or Ptges | no effect on ROS production
